The source of these data is article PMC5353707.

Test [1] deals with EGF456 (TM456) component of the thrombin-thrombomodulin fusion proteins (human) (UniProt P07204).
Test [2] addresses fragment TM456 of human thrombomodulin (soluble EGF456 domains) (human) (UniProt P07204).
For test [3] the target is unchanged. Briefly: SPR; biotinyl-TM456 on a neutravidin-coated CM5 chip (177 RU); thrombin injected at 30 μl/min, contact and dissociation 120 sec; 25 °C; Biacore-S200; TM456 loaded in 10 mM HEPES pH 7.4, 150 mM NaCl, 2.5 mM Ca2+, 0.05% Tween20; Kd from response units at the steady state.
Test [4] addresses Full-length rabbit thrombomodulin (TM) (rabbit).

As to thrombin mutant W215A (enzyme), in test [1], the kcat/KM of protein C activation by FP31W215A (thrombin W215A fused to EGF456, 31-residue linker) was 3300 M⁻¹ s⁻¹. In test [2], the kcat/KM of protein C activation by thrombin W215A with 500 nM TM456 was 3200 M⁻¹ s⁻¹. Further, the Kd in test [3] worked out at 0.023 µM.

Take “thrombin W215A/E217A (WE) component of the fusion protein FP31WE (domain or fragment)”: the kcat/KM of protein C activation by FP31WE (thrombin WE fused to EGF456, 31-residue linker) in test [1] amounted to 550 M⁻¹ s⁻¹.

As to “thrombin double mutant W215A/E217A (WE) (enzyme)”, the kcat/KM of protein C activation by thrombin WE with 500 nM TM456 in test [2] was found to be 380 M⁻¹ s⁻¹. This substance also had a Kd in test [3] of 0.031 µM.

Regarding thrombin wild-type (enzyme), in test [1], the kcat/KM of cleavage of the PAR1 fragment by FP7 (thrombin fused to TM456, 7-residue linker) was 5.8e+06 M⁻¹ s⁻¹; the kcat/KM of cleavage of the PAR1 fragment by FP17 (thrombin fused to TM456, 17-residue linker) is 2e+06 M⁻¹ s⁻¹; the kcat/KM of cleavage of the PAR1 fragment by FP31 (thrombin fused to TM456, 31-residue linker) came out at 300000 M⁻¹ s⁻¹; the kcat/KM of cleavage of the PAR1 fragment by FP41 (thrombin fused to TM456, 41-residue linker) is 950000 M⁻¹ s⁻¹. Besides, in test [1], the kcat/KM of cleavage of the PAR1 fragment by FP55 (thrombin fused to TM456, 55-residue linker) is 2.3e+06 M⁻¹ s⁻¹; the kcat/KM of cleavage of the PAR1 fragment by FP69 (thrombin fused to TM456, 69-residue linker) amounted to 1.4e+07 M⁻¹ s⁻¹; the kcat/KM of fibrinopeptide A release by FP7 (thrombin fused to TM456, 7-residue linker) turned out to be 6.7e+06 M⁻¹ s⁻¹; the kcat/KM of fibrinopeptide A release by FP17 (thrombin fused to TM456, 17-residue linker) amounted to 1.55e+06 M⁻¹ s⁻¹. Also, in test [1], the kcat/KM of fibrinopeptide A release by FP31 (thrombin fused to TM456, 31-residue linker) is 300000 M⁻¹ s⁻¹; the kcat/KM of fibrinopeptide A release by FP41 (thrombin fused to TM456, 41-residue linker) amounted to 600000 M⁻¹ s⁻¹; the kcat/KM of fibrinopeptide A release by FP55 (thrombin fused to TM456, 55-residue linker) amounted to 1.3e+06 M⁻¹ s⁻¹; the kcat/KM of fibrinopeptide A release by FP69 (thrombin fused to TM456, 69-residue linker) was 1.1e+07 M⁻¹ s⁻¹. In test [1], the kcat/KM of protein C activation by FP7 (thrombin fused to TM456, 7-residue linker) turned out to be 1100 M⁻¹ s⁻¹; the kcat/KM of protein C activation by FP17 (thrombin fused to TM456, 17-residue linker) worked out at 6100 M⁻¹ s⁻¹; the kcat/KM of protein C activation by FP31 (thrombin fused to TM456, 31-residue linker) was determined as 85000 M⁻¹ s⁻¹; the kcat/KM of protein C activation by FP41 (thrombin fused to TM456, 41-residue linker) amounted to 107000 M⁻¹ s⁻¹. In addition, in test [1], the kcat/KM of protein C activation by FP55 (thrombin fused to TM456, 55-residue linker) was found to be 120000 M⁻¹ s⁻¹ and the kcat/KM of protein C activation by FP69 (thrombin fused to TM456, 69-residue linker) is 74000 M⁻¹ s⁻¹. In addition, the kcat/KM of protein C activation by thrombin with TM in test [4] amounted to 230000 M⁻¹ s⁻¹. Further, the kcat/KM of protein C activation by thrombin with 500 nM TM456 in test [2] stood at 80000 M⁻¹ s⁻¹. Also, the Kd in test [3] came to 0.018 µM.
